Source: publication PMC6141012 (Nature, 2018)

T1: Snu71 (S. cerevisiae, UniProt P53207 1-620)
T1 sequence (looked up): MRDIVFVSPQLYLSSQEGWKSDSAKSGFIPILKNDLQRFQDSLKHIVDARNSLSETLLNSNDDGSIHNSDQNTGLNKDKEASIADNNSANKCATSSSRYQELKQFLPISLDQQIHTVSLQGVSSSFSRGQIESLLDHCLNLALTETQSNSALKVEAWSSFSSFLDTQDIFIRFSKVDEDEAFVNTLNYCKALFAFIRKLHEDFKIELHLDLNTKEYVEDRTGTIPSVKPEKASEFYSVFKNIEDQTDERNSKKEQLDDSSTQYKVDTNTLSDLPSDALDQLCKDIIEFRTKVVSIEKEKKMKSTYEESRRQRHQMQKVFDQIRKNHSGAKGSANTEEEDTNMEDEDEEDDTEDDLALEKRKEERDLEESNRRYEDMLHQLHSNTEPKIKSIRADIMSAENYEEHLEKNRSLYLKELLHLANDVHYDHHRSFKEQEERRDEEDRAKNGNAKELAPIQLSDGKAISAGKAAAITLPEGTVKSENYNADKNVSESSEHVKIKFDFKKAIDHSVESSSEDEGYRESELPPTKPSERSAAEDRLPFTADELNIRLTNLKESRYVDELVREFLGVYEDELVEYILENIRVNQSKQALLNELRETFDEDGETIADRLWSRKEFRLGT

T2: Prp39 (S. cerevisiae, UniProt P39682 1-629)
T2 sequence: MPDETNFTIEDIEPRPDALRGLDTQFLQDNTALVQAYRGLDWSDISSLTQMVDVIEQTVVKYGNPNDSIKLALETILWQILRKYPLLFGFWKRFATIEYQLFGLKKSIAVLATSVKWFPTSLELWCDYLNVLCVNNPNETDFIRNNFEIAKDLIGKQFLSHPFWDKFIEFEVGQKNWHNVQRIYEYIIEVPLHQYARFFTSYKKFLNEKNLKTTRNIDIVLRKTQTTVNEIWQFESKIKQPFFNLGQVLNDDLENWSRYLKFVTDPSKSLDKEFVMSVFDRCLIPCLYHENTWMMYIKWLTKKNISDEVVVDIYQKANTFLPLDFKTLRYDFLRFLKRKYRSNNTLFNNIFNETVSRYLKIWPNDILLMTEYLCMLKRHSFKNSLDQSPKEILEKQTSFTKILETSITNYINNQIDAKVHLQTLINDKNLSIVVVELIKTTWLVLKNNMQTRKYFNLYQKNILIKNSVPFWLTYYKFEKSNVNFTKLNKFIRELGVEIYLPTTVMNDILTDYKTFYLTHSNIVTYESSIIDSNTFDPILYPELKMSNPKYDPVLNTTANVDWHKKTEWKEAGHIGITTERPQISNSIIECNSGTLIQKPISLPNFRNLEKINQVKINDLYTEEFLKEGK

B1: Prp42 (natural protein)
chain: MDKYTALIHDENFSTLTLNVSRYPKSLAYWEKLLNYIVKASAPICKSTEPQLLKLIRCTYSSMLNEFPYLENYYIDFALLEYKLGNVSMSHKIFQRGLQAFNQRSLLLWTSYLKFCNNVISHQKQLFKKYETAEEYVGLHFFSGEFWDLYLEQISSRCTSSKKYWNVLRKILEIPLHSFSKFYALWLQRIDDIMDLKQLSQLTSKDELLKKLKIDINYSGRKGPYLQDAKKKLKKITKEMYMVVQYQVLEIYSIFESKIYINYYTSPETLVSSDEIETWIKYLDYTITLQTDSLTHLNFQRALLPLAHYDLVWIKYSKWLINSKNDLLGAKNVLLMGLKFSLKKTEIIKLLYSVICKLNEYVLLRNLLEKIESSYSDNVENVDDFEIFWDYLQFKTFCQNSLYSSRYSDSQSNGLLNKELFDKVWKRLSCKEKKSGQEILLNNLVQFYSKDTVEFVEKNIFQKIIEFGWEYYLQNGMFWNCYCRLIYFDTSRSYLDKRQYIVRKIWPQIDKKFAQSVLPSLTEFCESYFPEEMDTLEEMFTEEP
B2: Nam8 (natural protein, S. cerevisiae, UniProt Q00539 1-523, looked up)
chain: MSYKQTTYYPSRGNLVRNDSSPYTNTISSETNNSSTSVLSLQGASNVSLGTTGNQLYMGDLDPTWDKNTVRQIWASLGEANINVRMMWNNTLNNGSRSSMGPKNNQGYCFVDFPSSTHAANALLKNGMLIPNFPNKKLKLNWATSSYSNSNNSLNNVKSGNNCSIFVGDLAPNVTESQLFELFINRYASTSHAKIVHDQVTGMSKGYGFVKFTNSDEQQLALSEMQGVFLNGRAIKVGPTSGQQQHVSGNNDYNRSSSSLNNENVDSRFLSKGQSFLSNGNNNMGFKRNHMSQFIYPVQQQPSLNHFTDPNNTTVFIGGLSSLVTEDELRAYFQPFGTIVYVKIPVGKCCGFVQYVDRLSAEAAIAGMQGFPIANSRVRLSWGRSAKQTALLQQAMLSNSLQVQQQQPGLQQPNYGYIPSSTCEAPVLPDNNVSSTMLPGCQILNYSNPYANANGLGSNNFSFYSNNNATNTQATSLLADTSSMDLSGTGGQQVIMQGSEAVVNSTNAMLNRLEQGSNGFMFA

Assays:
Assay in all cases: cryo-EM structure
Snu71 = molecular target: T1, Snu71
Prp39 = molecular target: T2, Prp39
Prp42 = molecular target: B1
Nam8 = molecular target: B2

| binding result (Snu71) | binding result (Prp39) | binding result (Prp42) | binding result (Nam8) | Binder |
| --- | --- | --- | --- | --- |
| binds | – | – | – | Snu56 (natural protein, S. cerevisiae, UniProt Q03782 1-492, looked up) MRPRRRGLAYHHTKPKGQLSQGHYPTTSNDGQRRKVGNSEAFQSFDIWKNLDRIRSTKKNAGQFIKGSLLILPMRTEDKQQFDECMDELHKYISKDILRCYPQKEQKDEGMLFYIVLKDFNILDSCFVLSVLLAFQKRLWMAPSEKSYFRVPKNINLTGSFYLPKNIETGRGHIITSYRREQPSSSIVEVGFNVVPDFQQFQVKACHVSKFMNELSNFFSQVEFGKCEANVINYFKREYNRTYSQISLALYELPLIGDGLFDIKSYISKTRPIIETSKAQMIKHISEMKAYNEISGLQGDQFPRQQRPLSNSPSSNSISSSQTIEAGATSYQTQPQRHAVNKPSNVLNSSNRHSGPKTFEDGRYSEGNKPGFMTQDEIKQHCIGTIKASMDAVKKKSSYQILKTYVRCPRQNYIDIVYQNLNDLRSKTNCNIVVLNLNNLHESQMWLESLNTTNYTIFAQAPHPSTIRVISIGGVGEYIVKALELILNILEH |
| binds | binds | – | – | B1 |
| – | binds | binds | – | B2 |
| – | binds | binds | binds | Yhc1 (natural protein, S. cerevisiae, UniProt Q05900 1-231, looked up) MTRYYCEYCHSYLTHDTLSVRKSHLVGKNHLRITADYYRNKARDIINKHNHKRRHIGKRGRKERENSSQNETLKVTCLSNKEKRHIMHVKKMNQKELAQTSIDTLKLLYDGSPGYSKVFVDANRFDIGDLVKASKLPQRANEKSAHHSFKQTSRSRDETCESNPFPRLNNPKKLEPPKILSQWSNTIPKTSIFYSVDILQTTIKESKKRMHSDGIRKPSSANGYKRRRYGN |
| – | binds | – | – | Lea1 (natural protein, S. cerevisiae, UniProt Q08963 1-238, looked up) MKFTPSIVIDAPQYYVDHFNGKYNVDKCVILRDLQLETDSESMPSSLKHLTKPTHILDLTNNDLIMIPDLSRRDDIHTLLLGRNNIVEVDGRLLPMNVQNLTLSNNSIRRFEDLQRLRRAPRTLKNLTLIGNQVCHLANYREHVLRLVPHLETLDFQNVTAEERKSAMSFPRQADGDTLGPVNTAIRDNGSRDKTMEIMNLVVSKMTVERRNELKKQLAEATSLEEIARLEKLLSGGV |
